Experimental data from publication PMC1543650.

Columns and labels:
[1] = target: Fc-DC-SIGN (entire ectodomain of DC-SIGN fused in-frame with the Fc region of IgG1) (UniProt Q9NNX6); assay: ELISA
[2] = target: Fc-gp120 ΔV1V2V3 (HIV-1 JR-CSF); assay: flow cytometry on cells
[3] = target: Fc-gp120 WT (human IgG1 Fc fused N-terminal to full-length wild-type gp120 of HIV-1 JR-CSF) (HIV-1 JR-CSF); assay: flow cytometry on cells
[4] = target: Fc-gp120 ΔV1V2 (HIV-1 JR-CSF); assay: flow cytometry on cells
[5] = target: Fc-gp120 ΔV3 (HIV-1 JR-CSF); assay: flow cytometry on cells

UniProt Q9NNX6, sequence (Q9NNX6 59-404): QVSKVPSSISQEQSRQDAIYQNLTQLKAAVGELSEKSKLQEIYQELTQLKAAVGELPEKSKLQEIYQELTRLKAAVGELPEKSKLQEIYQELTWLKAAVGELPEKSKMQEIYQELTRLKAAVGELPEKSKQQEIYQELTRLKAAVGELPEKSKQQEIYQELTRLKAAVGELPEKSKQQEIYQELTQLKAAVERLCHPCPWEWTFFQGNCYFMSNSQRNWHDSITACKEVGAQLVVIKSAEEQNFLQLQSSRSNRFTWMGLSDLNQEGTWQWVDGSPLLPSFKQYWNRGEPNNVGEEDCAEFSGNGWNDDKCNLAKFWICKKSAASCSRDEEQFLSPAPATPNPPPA

Substance	IC50 [1] [nM]	% inhibition of Fc-gp120 binding to CEM cells at 10 μg/ml sCD4 [2] [%]	% inhibition of Fc-gp120 binding to CEM cells at 10 μg/ml sCD4 [3] [%]	% inhibition of Fc-gp120 binding to CEM cells at 10 μg/ml sCD4 [4] [%]	% inhibition of Fc-gp120 binding to CEM cells at 10 μg/ml sCD4 [5] [%]
biotinylated Fc-gp120 (Fc fusion)	0.017	–	–	–	–
4-domain recombinant soluble CD4 (domain or fragment)	–	50	100	100	100
